Target: SARS-CoV-2 S ectodomain trimer (SΔTM), wild type (SARS-CoV-2, UniProt P0DTC2)
Assay: SPR

B1: neutralizing monoclonal antibody 4A8 (NTD-directed), human IgG1 kappa (antibody, V domains shown)
VH: EVQLVESGAEVKKPGASVKVSCKVSGYTLTELSMHWVRQAPGKGLEWMGGFDPEDGETMYAQKFQGRVTMTEDTSTDTAYMELSSLRSEDTAVYYCATSTAVAGTPDLFDYYYGMDVWGQGTTVTVSS
VL: EIVMTQSPLSSPVTLGQPASISCRSSQSLVHSDGNTYLSWLQQRPGQPPRLLIYKISNRFSGVPDRFSGSGAGTDFTLKISRVEAEDVGVYYCTQATQFPYTFGQGTKVDIK
Kd: 0.42 ± 0.07 nM
